The labels stand for the following.
B1: Peripheral plasma membrane protein CASK, residues 488 to 569; numbered along this chain, O14936 (parent)
chain: VRLVQFQKNTDEPMGITLKMNELNHCIVARIMHGGMIHRQGTLHVGDEIREINGISVANQTVEQLQKMLREMRGSITFKIVP

This passage reports abundance fitness results from the Human Domainome abundance scans (Beltran et al. 2025).

± gives the uncertainty stated by the source.

Variants of B1 are the subject of the data set. Kind of data set: abundance fitness (aPCA) (normalised: wild type 0, dead -1); higher = more abundant; growth selection in yeast, the domain comes from the species named. The note with it: Homo sapiens.
For N59Y, the abundance fitness was -0.1 ± 0.047.
As for R50H, the figure is -0.148 ± 0.11; as for R50S, -0.079 ± 0.039.
The result for R50G reads -0.315 ± 0.034.
On to Q66M, for which the abundance fitness is -0.012 ± 0.03.
The result for Q66T reads -0.012 ± 0.027; that for I80W, -0.383 ± 0.081; that for I80S, -0.424 ± 0.038.
The result for I80F reads -0.098 ± 0.043.
Take I80K: the abundance fitness is -0.802 ± 0.15.
As for H33R, the figure is -0.006 ± 0.024; as for H33F, -0.102 ± 0.062.
The result for P82K reads -0.143 ± 0.092; that for P82Q, 0.02 ± 0.073; that for P82A, -0.016 ± 0.046.
Turning to P82I, the abundance fitness was -0.237 ± 0.27.
As for P82G, the figure is -0.083 ± 0.067.
The result for N53C reads -0.208 ± 0.078.
Take N53E: the abundance fitness was -0.327 ± 0.039.
The result for N53P reads -0.719 ± 0.12.
The result for N53Y reads -0.525 ± 0.17; that for N53Q, -0.186 ± 0.061; that for N53V, -0.932 ± 0.084.
With N53D, the abundance fitness was -0.27 ± 0.05.
The result for I52T reads -0.141 ± 0.17; that for I52R, -0.649 ± 0.45.
On to R70T, for which the abundance fitness is -0.02 ± 0.03.
For the variant R70K, the abundance fitness was -0.02 ± 0.031.
As for R70P, the figure is -0.229 ± 0.031; as for R70F, 0.002 ± 0.042; as for M20E, -0.302 ± 0.042.
Regarding M20Q, the abundance fitness is -0.059 ± 0.038.
As for M20T, the figure is -0.088 ± 0.04.
As for M20A, the figure is -0.128 ± 0.032.
As for A29T, the figure is -0.069 ± 0.054; as for A29G, -0.08 ± 0.027; as for A29I, -0.115 ± 0.066.
A29K: the abundance fitness is -0.059 ± 0.043.
The result for A29S reads -0.051 ± 0.038; that for Q5T, 0.117 ± 0.025.
Turning to Q5H, the abundance fitness is -0.049 ± 0.033.
As for Q5G, the figure is 0 ± 0.023; as for Q5M, 0.065 ± 0.029; as for Q5Y, -0.024 ± 0.031.
In the case of Q5L, the abundance fitness was -0.092 ± 0.023.
As for Q5E, the figure is 0.149 ± 0.027; as for G34D, -0.032 ± 0.051.
The result for G34C reads -0.252 ± 0.064.
The result for G34H reads -0.052 ± 0.085; that for M32W, -0.045 ± 0.045; that for M32I, 0.175 ± 0.085.
For the variant N21Y, the abundance fitness was -0.282 ± 0.041.
As for N21Q, the figure is -0.226 ± 0.034; as for N21C, -0.201 ± 0.042; as for A58D, -0.037 ± 0.039.
As for A58V, the figure is -0.025 ± 0.023; as for A58N, -0.076 ± 0.053; as for R30C, -0.055 ± 0.062.
The result for R30F reads -0.083 ± 0.1; that for R30H, 0.037 ± 0.057.
Turning to R30P, the abundance fitness was -1.11 ± 0.23.
As for R30L, the figure is -0.283 ± 0.035.
The result for R30Y reads 0.015 ± 0.092.
The result for R30N reads 0.012 ± 0.063; that for M68V, -0.026 ± 0.024; that for M68P, -0.647 ± 0.06.
For the variant M68Q, the abundance fitness is -0.014 ± 0.033.
The result for H38Y reads -0.076 ± 0.049; that for V57G, -0.758 ± 0.028; that for V57Q, -0.8 ± 0.051.
As for V57M, the figure is -0.079 ± 0.035; as for V57E, -0.965 ± 0.048; as for V57A, -0.061 ± 0.021.
The result for M14F reads -0.01 ± 0.04; that for M14L, 0.001 ± 0.029.
Take M14S: the abundance fitness was -0.149 ± 0.033.
As for M14R, the figure is -0.858 ± 0.078; as for M14T, -0.165 ± 0.042; as for M14I, 0.055 ± 0.037.
The result for Q40N reads -0.007 ± 0.041.
For the variant Q40C, the abundance fitness is -0.072 ± 0.029.
The result for Q40T reads -0.067 ± 0.026; that for Q40A, -0.016 ± 0.02; that for M72G, -0.077 ± 0.02.
As for M72W, the figure is -0.047 ± 0.024; as for D47S, -0.711 ± 0.077; as for D47I, -0.694 ± 0.36.
As for D47A, the figure is -0.708 ± 0.085; as for D47R, -0.939 ± 0.11; as for K79R, -0.061 ± 0.032.
On to K79W, for which the abundance fitness is -0.572 ± 0.084.
In the case of K79G, the abundance fitness was -0.044 ± 0.045.
As for K79Q, the figure is -0.016 ± 0.037; as for K79I, -0.406 ± 0.055; as for K79A, 0.071 ± 0.044.
The result for N24T reads -0.265 ± 0.03; that for N24W, -0.467 ± 0.032; that for N24L, -0.427 ± 0.026.
As for N24M, the figure is -0.204 ± 0.03; as for N24V, -0.7 ± 0.034; as for N24C, -0.159 ± 0.033.
On to L18T, for which the abundance fitness is -0.646 ± 0.086.
The result for L18M reads -0.128 ± 0.05.
The result for L18F reads 0.04 ± 0.061.
Regarding L18Y, the abundance fitness was -0.277 ± 0.15.
With L18K, the abundance fitness was -0.796 ± 0.14.
Regarding G74Y, the abundance fitness was -0.521 ± 0.068.
The result for G74P reads -0.524 ± 0.046; that for G74V, -0.716 ± 0.036; that for G74K, -0.399 ± 0.042.
As for T77W, the figure is -0.014 ± 0.048.
As for T77Y, the figure is -0.112 ± 0.078; as for T77A, -0.028 ± 0.039.
As to T77K, the abundance fitness is -0.041 ± 0.057.
V81C: the abundance fitness was -0.036 ± 0.048.
Regarding V81T, the abundance fitness was -0.075 ± 0.034.
The result for V81F reads -0.02 ± 0.038; that for V81L, 0.005 ± 0.027.
Consider V81N, for which the abundance fitness was -0.118 ± 0.046.
As for V81E, the figure is -0.104 ± 0.046; as for V28S, -0.867 ± 0.063; as for V4I, -0.091 ± 0.049.
In the case of V4D, the abundance fitness is -0.842 ± 0.1.
As for V4S, the abundance fitness is -0.392 ± 0.033.
As for V4C, the figure is -0.165 ± 0.04; as for S56L, -0.08 ± 0.026; as for S56V, -0.064 ± 0.023.
The result for S56H reads -0.09 ± 0.041; that for S56I, -0.155 ± 0.048; that for S56M, -0.102 ± 0.036.
The result for S56N reads -0.032 ± 0.04; that for S56E, -0.018 ± 0.025; that for M36C, -0.07 ± 0.058.
As to M36T, the abundance fitness came to 0.006 ± 0.05.
M36S: the abundance fitness stood at 0.049 ± 0.038.
The result for M36V reads 0 ± 0.036; that for M36H, 0.075 ± 0.061; that for M36A, 0.039 ± 0.039.
As for P13E, the figure is -0.119 ± 0.091; as for P13H, -0.054 ± 0.051.
As for P13S, the figure is -0.036 ± 0.045; as for P13V, -0.046 ± 0.052; as for P13G, -0.024 ± 0.054.
P13T: the abundance fitness was -0.041 ± 0.052.
Consider V62M, for which the abundance fitness is -0.052 ± 0.032.
As to I31S, the abundance fitness was -0.859 ± 0.075.
The result for I31L reads -0.058 ± 0.032; that for I31D, -0.61 ± 0.075; that for I31V, -0.057 ± 0.03.
As for I31K, the figure is -0.93 ± 0.15; as for I31G, -1 ± 0.069; as for Q60E, -0.085 ± 0.026.
As to Q60N, the abundance fitness amounted to 0.005 ± 0.043.
As for Q60W, the figure is -0.063 ± 0.027; as for L65M, -0.057 ± 0.035; as for L65V, 0.025 ± 0.025.
L65R: the abundance fitness is -0.449 ± 0.026.
The result for L65E reads -0.889 ± 0.067.
The result for E12P reads -0.757 ± 0.15; that for E12H, -0.154 ± 0.07.
The result for V1P reads -0.376 ± 0.11; that for V1L, -0.098 ± 0.035; that for V1R, -0.177 ± 0.043.
Turning to V1K, the abundance fitness is -0.046 ± 0.063.
The result for V1Q reads -0.189 ± 0.09; that for V1M, 0.099 ± 0.045; that for V1I, 0.085 ± 0.042.
